Experimental data reported in PMC6146688.

Legend:
[1] = target: LacI-mCherry-E1A(140–189) (human adenovirus 2) (UniProt P03254)
[2] = target: LacI-mCherry-E1A(121–223) (human adenovirus 2) (UniProt P03254); experiment: recruitment to a lacO array (colocalisation of a YFP fusion with a LacI-tethered fusion, confocal microscopy); CHO-A03.1 cells with ~10,000 integrated lacO sites, cotransfected with 2 ug LacI-CFP-E1A or LacI-mCherry-E1A vector and 2 ug YFP-MED6, YFP-MED23 or YFP-p300 vector; fixed after 48 h; score = % of scored cells with colocalisation
[3] = target: LacI-mCherry-E1A(133–178) (human adenovirus 2) (UniProt P03254); experiment: as above
[4] = target: LacI-mCherry-E1A(133–189) (human adenovirus 2) (UniProt P03254); experiment: as above
[5] = target: LacI-mCherry-E1A(133–205) (human adenovirus 2) (UniProt P03254); experiment: as above
[6] = target: LacI-mCherry-E1A(140–205) (human adenovirus 2) (UniProt P03254); experiment: as above

YFP-p300, Q09472 1-2414
luciferase reporter with eight lacO sites upstream of the E1B promoter, transient transfection of CHO-K1 cells; activity relative to LacI-mCherry-E1A(121–223) [1]: 10% | colocalization score (% of cells) [2]: 86% | colocalization score (% of cells) [3]: 64% | colocalization score (% of cells) [4]: 86% | colocalization score (% of cells) [5]: 73% | colocalization score (% of cells) [6]: 64%
